Here are results for two molecules from patent US20220251193A1 (RAMOT AT TEL AVIV UNIVERSITY, published 2022).

The term EC50 (read off the curve) denotes the concentration giving half of the maximal effect. High values mean a less potent agent, low ones a more potent agent.

The experiment concerns the target T1, Sema3A(65) (human (by the filing's definition of …, UniProt Q14563 21-555, limits assumed)).
T1 construct: also called recombinant pure Sema3a protein; 65 kDa furin cleavage
T1 sequence: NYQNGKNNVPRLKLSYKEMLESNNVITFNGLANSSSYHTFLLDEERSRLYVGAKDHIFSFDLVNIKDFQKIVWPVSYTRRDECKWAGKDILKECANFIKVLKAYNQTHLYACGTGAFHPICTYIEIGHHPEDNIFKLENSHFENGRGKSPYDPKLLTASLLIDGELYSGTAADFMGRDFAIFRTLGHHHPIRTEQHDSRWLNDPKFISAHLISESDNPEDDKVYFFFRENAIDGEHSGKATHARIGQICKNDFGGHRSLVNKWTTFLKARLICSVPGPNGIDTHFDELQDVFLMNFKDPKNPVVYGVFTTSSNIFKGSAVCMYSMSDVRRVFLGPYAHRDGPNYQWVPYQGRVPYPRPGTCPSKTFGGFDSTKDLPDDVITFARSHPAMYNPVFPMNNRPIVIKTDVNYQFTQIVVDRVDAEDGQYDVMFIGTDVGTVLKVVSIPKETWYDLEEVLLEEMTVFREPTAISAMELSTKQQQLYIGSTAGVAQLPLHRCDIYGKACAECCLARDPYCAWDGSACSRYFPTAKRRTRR
Kind of experiment: ELISA on coated antigen (5 µg/ml), Fab in 2 fold dilutions from 1 µM, detection with HRP goat anti human H+L. The procedure:
FIGS. 1A-B are graphs illustrating purification and ELISA binding evaluation of anti Sema3a isolated Fabs for estimated Kd values. The analyzed antibody was added in 2 fold dilution series starting at 1 μM to the antigen (Sema3A) coated wells (5 μg/ml). Bound antibodies were detected with horseradish peroxidase (HRP)-conjugated goat anti human H+L secondary antibodies. Fab 3H4 (FIG. 1A), L4B8 and L4E6 (FIG. 1B) are presented.
On the technique in general: ELISA stands for enzyme-linked immunosorbent assay.

B1: Fab L4B8 (Fab, V domains shown)
VH: EVQLLESGGGLVQPGGSLRLPCAASGFTVGLYNINWVRQAPGKGLAWVSTISGSGLNTYYSDPVKGRFTISRDNSKNTLYLQMNSLRAEDTAVYYCARDEDTYAFNWGQGTLVTVSS
VL: DIVLTQSPGTLSLSPGERATLSCRASQSVSSSYLAWYQQKPGQAPRLLIYGASTRAPGIPDRFSGSGSGTDFTLTISRLEPEDFAVYYCHQRGSGDTFGPGTKVEIK
notes: C-terminal His tag on the Fd fragment
On to B1, for which the “EC50 (read off the curve)” value is ~100 nM.

B2: Fab L4E6 (Fab, V domains shown)
VH: EVQLLESGGGLVQPGGSLRLSCAASGFTFSNFVMNWVRQAPGKGLEWVSRINTDGTSTNYADSVTGRFTISRDNSKNTLYLQMNSLRAEDTAVYYCARDYPLRRLMYYYYGMDVWGQGTLVTVSS
VL: DIVLTQSPGTLSLSPGERATLSCRASQTISSNLAWYQQKPGQAPRLLIYGASSRATGIPDRFSGSGSGTDFTLTISRLEPEDFAVYYCQQYSWSPRVYSFGQGTKLEIK
notes: as for B1
Take B2: the “EC50 (read off the curve)” value was ~200 nM.
